Values of other authors as cited in paper PMC4188015.
pKd: −log10 of the molar value. Blank lines part the entries; values can stand above or below the substance they belong to.

Columns and labels:
[1] = biological target: Human insulin (Homo sapiens) (UniProt P01308); experiment: ITC
[2] = biological target: insulin receptor isoform A (Homo sapiens) (UniProt P06213)
[3] = biological target: insulin receptor site 2 (Homo sapiens) (UniProt P06213)
[4] = biological target: insulin receptor site 1 (Homo sapiens) (UniProt P06213)

pKd [1]: 5.06
Substance: Human insulin (from UniProt P01308)

pKd [2]: 8.40
Substance: IGF-II (from UniProt P01344)

pKd [3]: 6.40 | pKd [4]: 8.19
Substance: insulin (from UniProt P01308)
